B1: CL-148729 (antibody, human IgG4 S228P, lambda, V domains shown)
VH: AVQLVESGGGLVQPGGSLKLSCAASGFTFSGSTMHWVRQASGRGLEWVGRIRSKADSYATAYSASVKGRFTISRDDSKKMAYLQMNSLKTEDMAVYYCTRSGDYWGQGTLVTVSS
VL: QSVLTQPPSVSAAPGQKVTISCSGSSSNIGKNYVAWYQQLPGTAPKLLIYDTNKRPSGIPDRFSGSKSGTSATLDITGLQTGDEADYYCGTWDISLSVGWLFGGGTKVTVLG
notes: Tested in human IgG4-PE format
B2: CL-82658 (antibody, human IgG4 S228P, kappa, V domains shown)
VH: QVQLVESGGGVVQPGRSLRLSCAASGFSFSSYGMHWVRQAPGKGLEWVAVISYDGSNKYYADSVKGRFTISRDNSKNTLYLQMNSLRGEDTAVYYCSKGSLTPRRGYYYSYGMDVWGQGTTVTVSS
VL: DIQMTQSPSSLSASVGDRVTITCRASQGIRNDLSWYQQKPGKAPKRLIYAASSLQSGVPSRFSGSGSGTEFTLTISSLQPEDFATYYCLQHNGYPFTFGPGTKVDIKR
notes: Tested in human IgG4-PE format; also called CL-82658 (IgG4-PE format)
B3: Anti-CXCR7 mAb #11G8 (R&D Systems) (antibody, V domains shown)
VH: EVKLVESGGDLVQPGGSLKLSCATSGFTFSDYYMFWVRQTPEKRLEWVAYITNGGDRSYYSDTVTGRFIISRDNAKNTLYLQMSRLKSEDTAMYYCARQGNWAAWFVYWGQGTLVTVSA
VL: DVLMTQTPLSLPVSLGDQASISCRSSHYIVHSDGNTYLEWYLQKPGQSPKLLIYKVSNRFSGVPDRFSGSGSGTDFTLKISRVEAEDLGIYYCFQGSHVPLTFGAGTKLELKR
B4: CL-82558 (antibody, human IgG4 S228P, kappa, V domains shown)
VH: QVQLQESGPGLVKPSQTLSLTCTVSGGSISSGGYYWSWIRQVPGKGLEWIGYISYSGNTFYSPSLKSRVTISVDTSENKFSLRLTSVTAADTAVYFCARDRRIPMLRGVKGYYYGLDVWGQGTTVTVSS
VL: DIVMTQSPLSLPVIPGEPASISCRSSQSLLHRNGYKYLDWYLQKPGQSPQLLIYLGSNRASGVPARFSGSGSGTDFTLKISRVEAEDVGVYYCMQALQTPWTFGQGTKVEIKR
notes: Tested in human IgG4-PE format; also called CL-82558 (IgG4-PE format)

Experiments:
[1] = biological target: T1, human CXCR4 (cell-expressed) (human, UniProt P61073 1-352); test: cell-based or functional assay
[2] = biological target: T1, human CXCR4 (cell-expressed); test: cell-based or functional assay; remark: listed apart in the source
cynomolgus CXCR4 [3] = biological target: T2, cynomolgus CXCR4 (cynomolgus monkey, UniProt Q28474 1-352); test: flow cytometry on CHO-S cells expressing cynomolgus CXCR4, anti-human Alexa Fluor 647 secondary antibody, GeoMean (647 nm)
T2 construct: also called cyno CXCR4; cynomolgus monkey CXCR4
Method: (§1) Cynomolgus monkey CXCR4 expressing CHO-S cells were plated at 100 uL/well of cells at 1 million of cells/mL (0.1 million of cells/well) into a 96 well V-bottom plate (Greiner). Plates were centrifuged at 300×g for 3 min at 4° C. and supernatant discarded. […] Primary antibody dilutions were added to cells (50 μL/well) and cell pellets resuspended by pipetting. Plates was incubated for 1 h at 4° C. 100 μL/well of PBS, was added and plates centrifuged at 300×g for 3 min at 4° C. and supernatant discarded. This step was repeated twice. […] Cells were resuspended by pipetting. Plates were incubated for 1 h at 4° C. 100 μL/well PBS, was added and plates centrifuged at 300×g for 3 min at 4° C. and supernatant discarded. This step was repeated twice. Finally, cells were resuspended in 100 μL/well of PBS and analysed on CytoFLEX (Beckman Coulter).
(§2) Binding of antibodies to cynomolgus CXCR4 expressed on CHO-S cells was analysed by gating the main cell population using forward and side scatter (Flow Jo, Flow Jo LLC) to allow for doublet discrimination. […] EC₅₀ values were calculated by transforming the data and fitting a 4-parameter logistic regression curve to each antibody titration.

[4] = biological target: T1, human CXCR4 (cell-expressed); test: cell-based or functional assay; remark: listed apart in the source
cynomolgus CXCR4 [5] = biological target: T2, cynomolgus CXCR4; test: cell-based or functional assay
[6] = biological target: T1, human CXCR4 (cell-expressed); test: cell-based or functional assay; remark: listed apart in the source
[7] = biological target: T1, human CXCR4 (cell-expressed); test: cell-based or functional assay; remark: listed apart in the source
[8] = biological target: T1, human CXCR4 (cell-expressed); test: cell-based or functional assay; remark: listed apart in the source
[9] = biological target: T1, human CXCR4 (cell-expressed); test: cell-based or functional assay; remark: listed apart in the source
cynomolgus CXCR4 [10] = biological target: T2, cynomolgus CXCR4; test: flow cytometry on CHO-S cells expressing cynomolgus CXCR4
Method: as §1, §2

[11] = biological target: T3, terbium-labelled SNAP-CXCR4 on HEK-293 cells (Cisbio C1TT1CXCR4) (human, UniProt P61072 1-352 (Pan troglodytes entry), terbium label on the SNAP tag); test: TR-FRET (Tag-lite) competition with AlexaFluor 647-CXCL12 on terbium-labelled SNAP-CXCR4 HEK-293 cells
T3 construct: Bought assay-ready cells; also called CXCR4 expressing cells; not shown: SNAP tag

human CXCR7 [12] = biological target: T4, human CXCR7 (human, UniProt P25106 1-362); test: flow cytometry on CHO-S cells expressing human CXCR7, Alexa Fluor 647 secondary antibody, GeoMean (647 nm)
T4 construct: Expressed on CHO-S cells
Method: CXCR7 expressing CHO-S cells were plated at 100 μL/well of cells at 1 million of cells/mL (0.1 million of cells/well) into a 96 well V-bottom plate (Greiner). Plates were centrifuged at 300×g for 3 min at 4° C. and supernatant discarded. […] Primary antibody dilutions were added to cells (100 μL/well) and cell pellets resuspended by pipetting. Plate was incubated for 1 h at 4° C. 100 μL/well of PBS, was added and plates centrifuged at 300×g for 3 min at 4° C. and supernatant discarded. This step was repeated twice. […] Cells were resuspended by pipetting. Plate was incubated for 1 h at 4° C. 100 μL/well of PBS, was added and plates centrifuged at 300×g for 3 min at 4° C. and supernatant discarded. This step was repeated twice. Finally, cells were resuspended in 100 μL/well of PBS and analysed on CytoFLEX (Beckman Coulter).
Binding of antibodies to CXCR7 expressed on CHO-S cells was analysed by gating the main cell population using forward and side scatter (Flow Jo, Flow Jo LLC) to allow for doublet discrimination.

CXCR4 StaR nanodiscs [13] = biological target: T5, CXCR4 StaR nanodiscs; test: SPR (Biacore T200), IgG4-PE antibody captured by anti-IgG on CM5, CXCR4 StaR nanodiscs at 250 nM as analyte, 25 C, 1:1 model; N = 1
T5 construct: Purified receptor in lipid-protein nanodiscs; also called StaR CXCR4; thermostabilised CXCR4
Method: (§3) Anti-IgG antibodies were immobilised on chip CM5 (GE Healthcare) by amine coupling. […] A channel with no anti-CXCR4 antibodies captured was used as a reference. […] The blank-subtracted sensorgrams were fitted to the 1:1 interaction model using the Biacore T200 evaluation software. The assay was run at 25° C. using 0.01 M HEPES pH 7.4, 0.15 M NaCl as running buffer.

human CXCR7 [14] = biological target: T4, human CXCR7; test: flow cytometry on CHO-S cells expressing human CXCR7, anti-mouse Alexa Fluor 647 secondary antibody, GeoMean (647 nm)
CXCR4 StaR nanodiscs [15] = biological target: T5, CXCR4 StaR nanodiscs; test: SPR (Biacore T200), IgG4-PE antibody captured by anti-IgG on CM5, CXCR4 StaR nanodiscs at 250 nM as analyte, 25 C, 1:1 model; N = 2
Method: as §3

T2 sequence (Q28474 whole entry): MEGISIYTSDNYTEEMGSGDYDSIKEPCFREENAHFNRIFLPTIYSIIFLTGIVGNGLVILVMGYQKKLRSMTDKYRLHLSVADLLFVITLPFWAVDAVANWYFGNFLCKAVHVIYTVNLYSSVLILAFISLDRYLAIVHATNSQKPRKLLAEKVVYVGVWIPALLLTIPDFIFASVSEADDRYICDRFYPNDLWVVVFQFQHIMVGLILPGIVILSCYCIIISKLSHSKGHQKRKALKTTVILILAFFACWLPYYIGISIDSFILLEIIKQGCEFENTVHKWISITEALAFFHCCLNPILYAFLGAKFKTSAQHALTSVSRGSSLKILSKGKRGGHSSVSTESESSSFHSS
T1 sequence (P61073 whole entry): as the sequence (Q28474 whole entry) above, with I24M, H35N, R38K, K146R, S176N counted along it
T3 sequence (P61072 whole entry): as the sequence (Q28474 whole entry) above, with I24M, H35N, R38K, K146R, S176N counted along it
T4 sequence (P25106 whole entry): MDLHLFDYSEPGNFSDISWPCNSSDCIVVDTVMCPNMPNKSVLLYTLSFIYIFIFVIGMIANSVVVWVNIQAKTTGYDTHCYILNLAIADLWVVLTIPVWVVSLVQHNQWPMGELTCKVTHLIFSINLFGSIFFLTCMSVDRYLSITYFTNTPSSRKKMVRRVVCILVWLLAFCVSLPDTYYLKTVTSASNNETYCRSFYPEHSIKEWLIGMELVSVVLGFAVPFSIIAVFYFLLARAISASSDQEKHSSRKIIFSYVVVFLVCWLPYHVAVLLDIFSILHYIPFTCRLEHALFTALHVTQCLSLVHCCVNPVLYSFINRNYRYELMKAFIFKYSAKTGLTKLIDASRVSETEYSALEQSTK

Binder | % Max Inhibition, cAMP HTRF assay, CXCR4 BacMam HEK-293 cells [1] | IC50, cAMP HTRF assay, CXCR4 BacMam HEK-293 cells, 5.5 nM CXCL12 [1] | % Max Inhibition, beta-arrestin reporter assay, Tango CXCR4-bla U2OS cells [2] | IC50, beta-arrestin reporter assay, Tango CXCR4-bla U2OS cells, 30 nM CXCL12 [2] | Max Signal (Total Overlap Object Area), internalisation on Ramos cells, live-cell imaging [4] | % Maximum Inhibition, cAMP HTRF assay, cyno CXCR4 BacMam HEK-293 cells (cynomolgus CXCR4 [5]) | IC50, cAMP HTRF assay, cyno CXCR4 BacMam HEK-293 cells (cynomolgus CXCR4 [5]) | % effect (remaining % of CXCL12 response), DMR assay, human T-cells [6] | IC50, label-free DMR assay, isolated human T-cells, EC80 CXCL12 [6] | IC50 n = 1, Jurkat chemotaxis towards 30 nM CXCL12 (IncuCyte) [7] | IC50 n = 2, Jurkat chemotaxis towards 30 nM CXCL12 (IncuCyte) [7] | IC50 n = 3, Jurkat chemotaxis towards 30 nM CXCL12 (IncuCyte) [7] | Mean IC50, Jurkat chemotaxis towards 30 nM CXCL12 (IncuCyte) [7] | % of max migration at 120 nM Ab, primary naïve T-cell trans-well migration [8] | IC50 of antibody in presence of 30 nM CXCL12, human T-cell transwell chemotaxis [9] | EC50 (cynomolgus CXCR4 [10]) | % Max Inhibition [11] | IC50 [11] | binding result (human CXCR7 [12]) | Kd (CXCR4 StaR nanodiscs [13]) | also measured
B1 | 114% | 6 nM | 99.6% | 0.11 nM |  |  |  |  |  |  |  |  |  |  |  |  |  |  |  |  | binding result (cynomolgus CXCR4 [3]): no binding (tested: log(M) about -6.9 (about 1.2e-7 M))
B2 | 98% | 23 nM | 100% | 0.35 nM | 18900 µm^2 per image | 80% | 1 nM | -0.6% | 1.54 nM | 0.22 nM | 0.31 nM | 0.21 nM | 0.25 nM | -2.08% | 0.18 not printed (nM assumed) | 4.2 nM | 100% | 1.04 nM | no binding (tested: log(M) about -6.9 (about 1.2e-7 M)) | 9.6 nM | IC50, primary naïve T-cell trans-well migration [8]: 0.99 nM; koff (CXCR4 StaR nanodiscs [13]): 0.0005 s⁻¹; kon (CXCR4 StaR nanodiscs [13]): 52000 M⁻¹ s⁻¹
B3 |  |  |  |  |  |  |  |  |  |  |  |  |  |  |  |  |  |  |  |  | EC50 (read off the curve) (human CXCR7 [14]): ~10 nM
B4 | 94% | 29 nM | 99.5% | 0.07 nM | 23900 µm^2 per image | 83% | 1.3 nM | 4.3% | 1.72 nM | 0.72 nM | 0.94 nM | 0.71 nM | 0.79 nM | 6.34% | 0.14 not printed (nM assumed) | 1.1 nM | 101% | 0.57 nM | no binding (tested: log(M) about -6.9 (about 1.2e-7 M)) | 3.9 nM | koff (CXCR4 StaR nanodiscs [13]): 0.00047 s⁻¹; kon (CXCR4 StaR nanodiscs [13]): 120000 M⁻¹ s⁻¹; Kd (CXCR4 StaR nanodiscs [15]): 1.7 nM; koff (CXCR4 StaR nanodiscs [15]): 0.00013 s⁻¹; kon (CXCR4 StaR nanodiscs [15]): 77000 M⁻¹ s⁻¹

— patent publication US20240294651A1 (KYMAB, published 2024)
